Experimental data published in PMC6134688, “Identification of a novel site of interaction between ataxin-3 and the amyloid aggregation inhibitor polyglutamine binding peptide 1” (European Journal of Mass Spectrometry (Chichester, England), 2017).
Where no end group is shown, it is not given here.

B1: JD+, the Josephin domain plus residues 183-221 (ataxin-3 residues 1-221) (domain or fragment, UniProt P54252 1-221, looked up)
chain: MESIFHEKQEGSLCAQHCLNNLLQGEYFSPVELSSIAHQLDEEERMRMAEGGVTSEDYRTFLQQPSGNMDDSGFFSIQVISNALKVWGLELILFNSPEYQRLRIDPINERSFICNYKEHWFTVRKLGKQWFNLNSLLTGPELISDTYLALFLAQLQQEGYSIFVVKGDLPDCEADQLLQMIRVQQMHRPKLIGEELAQLKEQRVHKTDLERVLEANDGSGM
notes: ataxin-3 residues 1-221, made by a stop codon in the gene encoding ataxin-3 14Q; printed mass 27,704.4 Da; also called ataxin-3 1-221
B2: polyQ binding peptide 1 (peptide)
peptide: Ac-SNWKWWPGIFD
notes: printed mass 1477.6 Da; also called QBP1; source: synthetic peptide, bought: Bio-Synthesis Inc

Tests used:
[1] = biological target: the molecule itself; test: native MS; nanoESI-MS; 10 μM protein and 50 μM QBP1 (five-fold molar excess) in 250 mM ammonium hydrogen carbonate, 1 mM dithiothreitol, pH 7.8
ataxin-3 14Q [2] = biological target: ataxin-3 14Q (UniProt P54252); test: native MS; nanoESI-MS; 16-fold excess of QBP1 over ataxin-3 14Q (Supplementary Figure 1)
[3] = biological target: T1, MBP-183-221, maltose binding protein linked to residues 183-221 of ataxin-3 (UniProt P54252 183-221); test: native MS; nanoESI-MS; equimolar QBP1 (for the TEV-cleaved MBP fusion the ratio is not told); details: both partners purified
T1 construct: printed mass 49,207.6 Da; MBP drawn from PDB 1LLS; not shown: MBP, N-terminal, kept
T1 chain (looked up): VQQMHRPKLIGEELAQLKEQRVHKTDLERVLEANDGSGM

ataxin-3 14Q [4] = biological target: ataxin-3 14Q (UniProt P54252); test: native MS; nanoESI-MS; 10 μM protein and 50 μM QBP1 (five-fold molar excess) in 250 mM ammonium hydrogen carbonate, 1 mM dithiothreitol, pH 7.8
ataxin-3 78Q [5] = biological target: ataxin-3 78Q (UniProt P54252); test: as above
[6] = biological target: T2, JDU1, the Josephin domain plus the first UIM (ataxin-3 residues 1-241) (UniProt P54252 1-241); test: as above; details: both partners purified
T2 construct: ataxin-3 residues 1-241, made by a stop codon in the gene encoding ataxin-3 14Q; printed mass 30,046.7 Da

[7] = biological target: B1; test: as above; details: both partners purified
ataxin-3 14Q [8] = biological target: ataxin-3 14Q (UniProt P54252); test: 1H T1rho NMR (signal of the peptide); 50 μM QBP1 and 10 μM protein in 250 mM ammonium hydrogen carbonate, 10% (v/v) D2O; 100 ms spin-lock; methyl region 0.45-0.75 ppm integrated
ataxin-3 78Q [9] = biological target: ataxin-3 78Q (UniProt P54252); test: as above

| Binder | stoichiometry N [1] | stoichiometry N (ataxin-3 14Q [2]) | stoichiometry N [3] | stoichiometry N (ataxin-3 14Q [4]) | stoichiometry N (ataxin-3 78Q [5]) | stoichiometry N [6] | stoichiometry N [7] | loss of QBP1 signal in T1rho NMR (ataxin-3 14Q [8]) [%] | loss of QBP1 signal in T1rho NMR (ataxin-3 78Q [9]) [%] |
| --- | --- | --- | --- | --- | --- | --- | --- | --- | --- |
| B1 | 2 | – | – | – | – | – | – | – | – |
| B2 | – | 1 | 1 | 1 | 1 | 1 | 1 | 22 | 24 |
